This test has as its target Rac1 (non-glucosylated) of mouse intestinal epithelial CT26 cells (mouse) (UniProt P63001). The experiment in a line: cell-based or functional assay.
With “native TcdA (nTcdA) purified from culture supernatant of C. difficile strain VPI 10463 (from UniProt P16154 1-2710) (enzyme)”, the glucosylation of Rac1 in CT26 cells, 5 h (Western blot with anti-Rac1 clone 102): complete worked out at 40 ng/mL.

For “full-length recombinant Clostridium difficile toxin B (rTcdB), His-tagged, expressed in Bacillus megaterium (from UniProt P18177 2-2366) (enzyme)”, the glucosylation of Rac1 in CT26 cells, 5 h (Western blot with anti-Rac1 clone 102): complete fell in the range of 0.4 to 2 ng/mL.

In the case of “full-length recombinant Clostridium difficile toxin A (rTcdA), His-tagged, expressed in Bacillus megaterium (from UniProt P16154 1-2710) (enzyme)”, the glucosylation of Rac1 in CT26 cells, 5 h (Western blot with anti-Rac1 clone 102): complete came out at 40 ng/mL.

“native TcdB (nTcdB) purified from C. difficile strain VPI 10463 (from UniProt P18177 2-2366) (enzyme)”: the glucosylation of Rac1 in CT26 cells, 5 h (Western blot with anti-Rac1 clone 102): complete lay within 0.4 to 2 ng/mL.

(Values after patent publication US20110065123A1.)
